# According to patent US6395275 (Scripps Research, dated 2002):
# Changes are numbered by the printed parent chain. Read-outs that look alike come from different tables or passages of the source.
# B1: Fab 3b3 (Fab, V domains shown)
# VH: LEQSGAEVKKPGASVKVSCQASGYRFSNFTVHWVRQAPGQRFEWMGWINPYNGNKEFSAKFQDRVTFTADTSANTAYMELRSLRSADTAVYYCARVGEWGWDDSPQDNYYMDVWGKGTTVIVSS
# VL: ELTQSPGTLSLSPGERATFSCRSSHSIRSRRVAWYQHKPGQAPRLVIHGVSNRASGISDRFSGSGSGTDFTLTITRVEPEDFALYYCQVYGASSYTFGQGTKLERKR
# B2: composite Fab H101/L42-1 (Fab, V domains shown)
# VH: B1 VH with N28H, M45H, D102H, D103Q, S104R, P105R, Q106Y
# VL: B1 VL with S26Q, I27L, R28D, S29G, R30S, V89Q, A92W, S93P, S94F
# B3: composite Fab H33/L42-17 (Fab, V domains shown)
# VH: B1 VH with N28H, V31L, M45H, D102E, D103M, S104F, P105R, Q106Y
# VL: B1 VL with S26Q, I27L, R28D, S29G, R30S, V89Q, A92W, S93P, S94F
# B4: composite Fab H31/L42-1 (Fab, V domains shown)
# VH: B1 VH with N28H, M45H, D102E, D103M, S104F, P105R, Q106Y
# VL: B1 VL with S26Q, I27L, R28D, S29G, R30S, V89Q, A92W, S93P, S94F
# notes: also called Fab of plasmid pPho-H31/L42-1 (ATCC 69691)
# B5: composite Fab H101/L42-16 (Fab, V domains shown)
# VH: B1 VH with N28H, M45H, D102H, D103Q, S104R, P105R, Q106Y
# VL: B1 VL with S26Q, I27L, R28D, S29G, R30S, V89Q, A92W, S93P, S94F
# B6: Fab 3b4 (Fab, V domains shown)
# VH: LEQSGAEVKKPGASVKVSCQASGYRFSNYTLIWVRQAPGQRFEWMGWINPYNGNKEFSAKFQDRVTFTADTSANTAYMELRSLRSADTAVYYCARVGPWNWDSPQDNYYMDVWGKGTTVIVSS
# VL: B1 VL
# B7: composite Fab H33/LH-11 (Fab, V domains shown)
# VH: B1 VH with N28H, V31L, M45H, D102E, D103M, S104F, P105R, Q106Y
# VL: B1 VL with S26Q, I27L, R28D, S29G, R30S, V89T, A92R, S93G, S94H
# B8: Fab H4L3-3 (Fab, V domains shown)
# VH: B1 VH
# VL: ELTQSPGTLSLSPGERATFSCRSSHSIRSRRVAWYQHKPGQAPRLVIHGVSNRASGISDRFSGSGSGTDFTLTITRVEPEDFALYYCQVYGGSAYTFGQGTKLERK
# B9: Fab MT4 (Fab, V domains shown)
# VH: B1 VH with T30V, V31I, E98P, W99Y, G100S
# VL: B1 VL
# notes: also called Fab 4; 4H (heavy chain)
# B10: Fab H4H1-5 (Fab, V domains shown)
# VH: B1 VH with N28H, V31I, H32M, E98P, W99Y, G100S
# VL: B1 VL
# B11: Fab H4H1-1 (Fab, V domains shown)
# VH: B1 VH with N28H, E98P, W99Y, G100S
# VL: B1 VL
# B12: Fab 3b9 (Fab, V domains shown)
# VH: B1 VH with E98P, G100R, T119I
# VL: B1 VL
# B13: Fab M556-3 (Fab, V domains shown)
# VH: B1 VH with D102E, D103M, S104F, P105R, Q106Y
# VL: B1 VL
# B14: Fab 3b1 (Fab, V domains shown)
# VH: B1 VH with V31L, H32M, E98Q, G100N
# VL: B1 VL
# B15: Fab B (Fab, V domains shown)
# VH: B1 VH
# VL: B1 VL with S26T, I27V, R28Y, S29R, R30D
# B16: Fab M556-15 (Fab, V domains shown)
# VH: B1 VH with D102T, D103Q, S104R, P105R, Q106F
# VL: B1 VL
# B17: Fab H4L3-4 (Fab, V domains shown)
# VH: B1 VH
# VL: B1 VL with V89K, A92G, S93G, S94T
# B18: Fab M556-7 (Fab, V domains shown)
# VH: B1 VH with D102E, D103M, S104R, P105R, Q106F
# VL: B1 VL
# B19: Fab M556-2 (Fab, V domains shown)
# VH: B1 VH with D102E, D103Q, S104F, P105R, Q106F
# VL: B1 VL
# B20: Fab D (Fab, V domains shown)
# VH: B1 VH
# VL: B1 VL with S26Q, I27L, R28D, S29G, R30S
# B21: Fab M556-16 (Fab, V domains shown)
# VH: B1 VH with D103Q, S104V, P105R, Q106Y
# VL: B1 VL
# B22: Fab H4H1-3 (Fab, V domains shown)
# VH: B1 VH with N28H, V31L, E98P, W99Y, G100S
# VL: B1 VL
# B23: Fab H4L3-2 (Fab, V domains shown)
# VH: B1 VH
# VL: B1 VL with V89Q, A92W, S93P, S94F
# B24: Fab M556-10 (Fab, V domains shown)
# VH: B1 VH with D102H, D103Q, S104R, P105R, Q106Y
# VL: B1 VL
# B25: Fab A (Fab, V domains shown)
# VH: B1 VH
# VL: B1 VL with S26K, I27E, R28F, S29G
# Assays:
# [1] = target: T1, recombinant gp120 of HIV-1 strain IIIb (HIV-1 strain IIIb, UniProt P04578 33-511); experiment: SPR BIAcore, gp120 on chip
# T1 construct: domain: gp120; also called IIIb-derived gp120; gp 120 (IIIB strain)
# [2] = target: gp120 glycoprotein of HIV-1 strain MN (HIV-1 strain MN, UniProt P05877 32-513, limits assumed); experiment: cell-based or functional assay
# [3] = target: T1, recombinant gp120 of HIV-1 strain IIIb; experiment: cell-based or functional assay
# [4] = target: T1, recombinant gp120 of HIV-1 strain IIIb; experiment: SPR BIAcore, gp120 on chip; remark: listed apart in the source
# From the text: In the assay, the gp120 glycoprotein, isolated from both MN (AgMed, Cambridge, Mass.) and IIIb (American Bio-Technologies) strains of HIV-1 were coated onto gold chips. […] As the mass of the gold chips increases due to the binding of the Fabs to the ligand, the refractive index of the chips increases indicating a coordinate increase in the increase of the mass. Measurements of the "on" rate are made in addition to the "off" rates, the latter of which occurs as the Fabs begin to dissociate from the ligand and the mass coordinately decreases, thereby allowing a measurement of the change of the refractive index. Briefly, the sensor chip was activated for immobilization with N-hydroxysuccinimide an N-ethyl-N'-(3-diethyl aminopropyl) carbodiimide. The proteins, MN-derived or IIIb-derived gp120, were coupled to the surface by injection of 50 ul of a 50 ug/ml sample. Excess activated esters were quenched with 15 ul ethanolamine, 1 M pH 8.5. Typically, 4000 resonance units were immobilized. Binding of Fab fragments to immobilized gp120 was studied by injection of Fab in a range of concentrations (0.5 to 10 ug/ml) at a flow rate of 5 ul/minute. The association was monitored as the increase in resonance units per unit time. Dissociation measurements were acquired following the end of the association phase but with a flow rate of 50 ul/minute. […]
# [5] = target: T1, recombinant gp120 of HIV-1 strain IIIb; experiment: SPR BIAcore, gp120 on chip; remark: listed apart in the source
# [6] = target: T1, recombinant gp120 of HIV-1 strain IIIb; experiment: SPR BIAcore, gp120 on chip; remark: listed apart in the source
# From the text: (§1) As the mass of the gold chips increases due to the binding of the Fabs to the ligand, the refractive index of the chips increases indicating a coordinate increase in the increase of the mass. Measurements of the "on" rate are made in addition to the "off" rates, the latter of which occurs as the Fabs begin to dissociate from the ligand and the mass coordinately decreases, thereby allowing a measurement of the change of the refractive index. Briefly, the sensor chip was activated for immobilization with N-hydroxysuccinimide an N-ethyl-N'-(3-diethyl aminopropyl) carbodiimide. The proteins, MN-derived or IIIb-derived gp120, were coupled to the surface by injection of 50 ul of a 50 ug/ml sample. Excess activated esters were quenched with 15 ul ethanolamine, 1 M pH 8.5. Typically, 4000 resonance units were immobilized. Binding of Fab fragments to immobilized gp120 was studied by injection of Fab in a range of concentrations (0.5 to 10 ug/ml) at a flow rate of 5 ul/minute. The association was monitored as the increase in resonance units per unit time. Dissociation measurements were acquired following the end of the association phase but with a flow rate of 50 ul/minute. The binding surface was regenerated with HCl, 1M NaCl, pH 3 and remained active for 20–40 measurements. […] Equilibrium association and dissociation constants were deduced from the rate constants.
# (§2) The soluble composite Fabs were then analyzed for binding affinity to gp120 strain IIIB.
# [7] = target: T1, recombinant gp120 of HIV-1 strain IIIb; experiment: SPR BIAcore, gp120 on chip (summary table)
# [8] = target: T1, recombinant gp120 of HIV-1 strain IIIb; experiment: calculated as ln2/Koff from SPR
# Method: as §2
# In addition, the half-life of the binding of the gp120-reactive Fabs to gp120 can be obtained by dividing the natural log ($\ln_2$) with the $Koff$ rate constant, thereby obtaining a further parameter of the nature of the interaction.
# [9] = target: T1, recombinant gp120 of HIV-1 strain IIIb; experiment: SPR BIAcore, gp120 on chip; remark: listed apart in the source
# From the text: as §1
# [10] = target: T1, recombinant gp120 of HIV-1 strain IIIb; experiment: SPR BIAcore, gp120 on chip; remark: listed apart in the source
# Method: Briefly, the sensor chip was activated for immobilization with N-hydroxysuccinimide an N-ethyl-N'-(3-diethyl aminopropyl) carbodiimide. The proteins, MN-derived or IIIb-derived gp120, were coupled to the surface by injection of 50 ul of a 50 ug/ml sample. Excess activated esters were quenched with 15 ul ethanolamine, 1 M pH 8.5. Typically, 4000 resonance units were immobilized. Binding of Fab fragments to immobilized gp120 was studied by injection of Fab in a range of concentrations (0.5 to 10 ug/ml) at a flow rate of 5 ul/minute. The association was monitored as the increase in resonance units per unit time. Dissociation measurements were acquired following the end of the association phase but with a flow rate of 50 ul/minute. The binding surface was regenerated with HCl, 1M NaCl, pH 3 and remained active for 20–40 measurements. […] Equilibrium association and dissociation constants were deduced from the rate constants.
# [11] = target: T1, recombinant gp120 of HIV-1 strain IIIb; experiment: SPR BIAcore, gp120 on chip; remark: listed apart in the source
# From the text: as §1
# The soluble M556 series Fabs were then analyzed for binding affinity to gp120 (strain IIIB).
# [12] = target: T1, recombinant gp120 of HIV-1 strain IIIb; experiment: SPR BIAcore, gp120 on chip; remark: listed apart in the source
# From the text: as §1
# The soluble A–D series Fabs were then analyzed for binding affinity to gp120 strain IIIB.
binder,measurement,setting,value
B1,Ka,[1],1.3e+09 M⁻¹
same,"IC50 (M^-1), syncytium neutralization assay, HIV-1 MN on CEM-SS cells",[2],9.02e+09 M⁻¹
same,"Neutralization Titer (ng/ml), syncytium assay, HIV-1 MN",[2],5.5 ng/mL
same,"IC50 (M), syncytium neutralization assay, HIV-1 IIIb",[3],9.4e-10 M
same,"Neutralization titer (ng/ml), syncytium assay, HIV-1 IIIb",[3],47 ng/mL
same,Kd,[4],0.77 nM
B2,koff,[5],1.74e-05 s⁻¹
same,kon,[5],134000 M⁻¹ s⁻¹
same,Fold Increase of Mutant Kd Compared to MT4 Kd,[6],48.5 fold
same,Ka,[6],7.7e+09 M⁻¹
same,Kd,[6],0.13 nM
same,Kd,[7],0.13 nM
B3,koff,[5],1.78e-05 s⁻¹
same,kon,[5],98400 M⁻¹ s⁻¹
same,Fold Increase of Mutant Kd Compared to MT4 Kd,[6],34.4 fold
same,Ka,[6],5.46e+09 M⁻¹
same,Kd,[6],0.183 nM
same,Kd,[7],0.183 nM
B4,koff,[5],1.75e-07 s⁻¹
same,kon,[5],67300 M⁻¹ s⁻¹
same,Fold Increase of Mutant Kd Compared to MT4 Kd,[6],2430 fold
same,Ka,[6],3.85e+11 M⁻¹
same,Kd,[6],0.00259 nM
same,half-life of binding,[8],44.5 days
same,Kd,[7],0.00259 nM
B5,koff,[5],1.19e-05 s⁻¹
same,kon,[5],69100 M⁻¹ s⁻¹
same,Fold Increase of Mutant Kd Compared to MT4 Kd,[6],36.6 fold
same,Ka,[6],5.81e+09 M⁻¹
same,Kd,[6],0.172 nM
same,Kd,[7],0.17 nM
B6,"IC50 (M^-1), syncytium neutralization assay, HIV-1 MN on CEM-SS cells",[2],2.57e+09 M⁻¹
same,"Neutralization Titer (ng/ml), syncytium assay, HIV-1 MN",[2],19.4 ng/mL
B7,koff,[5],5.45e-06 s⁻¹
same,kon,[5],73200 M⁻¹ s⁻¹
same,Fold Increase of Mutant Kd Compared to MT4 Kd,[6],85.4 fold
same,Ka,[6],1.36e+10 M⁻¹
same,Kd,[6],0.0738 nM
same,Kd,[7],0.0738 nM
B8,Fold Increase of Mutant Kd Compared to MT4 Kd,[9],1.9 fold
same,Kd,[9],3.31 nM
B9,"IC50 (M^-1), syncytium neutralization assay, HIV-1 MN on CEM-SS cells",[2],1.69e+08 M⁻¹
same,"Neutralization Titer (ng/ml), syncytium assay, HIV-1 MN",[2],296 ng/mL
B10,Fold Increase of Mutant Kd Compared to MT4 Kd,[10],2.57 fold
same,Kd,[10],2.45 nM
B11,Fold Increase of Mutant Kd Compared to MT4 Kd,[10],3.7 fold
same,Kd,[10],1.7 nM
B12,"IC50 (M^-1), syncytium neutralization assay, HIV-1 MN on CEM-SS cells",[2],6.4e+09 M⁻¹
same,"Neutralization Titer (ng/ml), syncytium assay, HIV-1 MN",[2],7.8 ng/mL
B13,Fold Increase of Mutant Kd Compared to MT4 Kd,[11],63 fold
same,Kd,[11],0.101 nM
same,Kd,[7],0.1 nM
B14,"IC50 (M^-1), syncytium neutralization assay, HIV-1 MN on CEM-SS cells",[2],5.42e+09 M⁻¹
same,"Neutralization Titer (ng/ml), syncytium assay, HIV-1 MN",[2],9.2 ng/mL
same,"IC50 (M), syncytium neutralization assay, HIV-1 IIIb",[3],4.4e-10 M
same,"Neutralization titer (ng/ml), syncytium assay, HIV-1 IIIb",[3],22 ng/mL
B15,Fold Increase of Mutant Kd Compared to MT4 Kd,[12],5.7 fold
same,Kd,[12],1.1 nM
B16,Fold Increase of Mutant Kd Compared to MT4 Kd,[11],36.2 fold
same,Kd,[11],0.174 nM
same,Kd,[7],0.174 nM
B17,Fold Increase of Mutant Kd Compared to MT4 Kd,[9],25.7 fold
same,Kd,[9],0.243 nM
same,Kd,[7],0.243 nM
B18,Fold Increase of Mutant Kd Compared to MT4 Kd,[11],48.1 fold
same,Kd,[11],0.131 nM
same,Kd,[7],0.13 nM
B19,Fold Increase of Mutant Kd Compared to MT4 Kd,[11],14.3 fold
same,Kd,[11],0.439 nM
same,Kd,[7],0.439 nM
B20,Fold Increase of Mutant Kd Compared to MT4 Kd,[12],28.6 fold
same,Kd,[12],0.22 nM
same,Kd,[7],0.22 nM
B21,Fold Increase of Mutant Kd Compared to MT4 Kd,[11],45.3 fold
same,Kd,[11],0.139 nM
same,Kd,[7],0.139 nM
B22,Fold Increase of Mutant Kd Compared to MT4 Kd,[10],3.15 fold
same,Kd,[10],2 nM
B23,Fold Increase of Mutant Kd Compared to MT4 Kd,[9],45.3 fold
same,Kd,[9],0.138 nM
same,Kd,[7],0.138 nM
B24,Fold Increase of Mutant Kd Compared to MT4 Kd,[11],69.5 fold
same,Kd,[11],0.0906 nM
same,Kd,[7],0.906 nM
B25,Fold Increase of Mutant Kd Compared to MT4 Kd,[12],1.3 fold
same,Kd,[12],4.7 nM
